The record followed here is the supplement of paper PMC10567573.

Sequences and labels used below:
B1: PWWP2B (parent)
chain: TIRLRPRQVLCEKCKSTLSPPEAS
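Also: lentivirally expressed fusions sorted by FACS into six bins by GFP to DsRed ratio, PSI derived from sequencing read proportions per bin multiplied by bin number.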

Variants of B1 are the subject of the data set. Briefly: protein stability index of a GFP-peptide fusion (GPS, HEK-293T) (PSI 1-6); higher = more stable. The note with it: c terminus: a fixed tail appended.
In the case of TIRLRPRQWLCEKCKSTLSPPEAS, the protein stability index came to 2.24.

In the case of TIRLRPRQNLCEKCKSTLSPPEAS, the protein stability index came to 3.58.

For the variant TIMLRPRQVLCEKCKSTLSPPEAS, the protein stability index came to 3.14.

For TIQLRPRQVLCEKCKSTLSPPEAS, the protein stability index was found to be 3.61.

Take TIPLRPRQVLCEKCKSTLSPPEAS: the protein stability index is 3.81.

Turning to TISLRPRQVLCEKCKSTLSPPEAS, the protein stability index turned out to be 3.37.

Turning to TIWLRPRQVLCEKCKSTLSPPEAS, the protein stability index worked out at 2.98.

On to TIVLRPRQVLCEKCKSTLSPPEAS, for which the protein stability index stood at 2.7.

TIYLRPRQVLCEKCKSTLSPPEAS: the protein stability index was 2.82.

In the case of TILLRPRQVLCEKCKSTLSPPEAS, the protein stability index amounted to 2.71.

As to TINLRPRQVLCEKCKSTLSPPEAS, the protein stability index amounted to 3.8.

In the case of TIELRPRQVLCEKCKSTLSPPEAS, the protein stability index came to 4.37.

With TIILRPRQVLCEKCKSTLSPPEAS, the protein stability index came to 3.04.

As to TIGLRPRQVLCEKCKSTLSPPEAS, the protein stability index was determined as 3.09.

For the variant TIALRPRQVLCEKCKSTLSPPEAS, the protein stability index stood at 3.69.

With TIKLRPRQVLCEKCKSTLSPPEAS, the protein stability index is 3.99.

Regarding TIDLRPRQVLCEKCKSTLSPPEAS, the protein stability index was determined as 3.82.

For the variant TIHLRPRQVLCEKCKSTLSPPEAS, the protein stability index was determined as 3.09.

In the case of TICLRPRQVLCEKCKSTLSPPEAS, the protein stability index was determined as 2.61.

As for TIFLRPRQVLCEKCKSTLSPPEAS, the protein stability index turned out to be 2.02.

As for TITLRPRQVLCEKCKSTLSPPEAS, the protein stability index is 3.27.

Take SIRLRPRQVLCEKCKSTLSPPEAS: the protein stability index turned out to be 2.98.

PIRLRPRQVLCEKCKSTLSPPEAS: the protein stability index was 3.43.

Consider QIRLRPRQVLCEKCKSTLSPPEAS, for which the protein stability index amounted to 3.11.

On to NIRLRPRQVLCEKCKSTLSPPEAS, for which the protein stability index came to 3.63.

For the variant WIRLRPRQVLCEKCKSTLSPPEAS, the protein stability index came out at 2.12.

On to IIRLRPRQVLCEKCKSTLSPPEAS, for which the protein stability index came to 2.44.

In the case of YIRLRPRQVLCEKCKSTLSPPEAS, the protein stability index came to 1.76.

RIRLRPRQVLCEKCKSTLSPPEAS: the protein stability index is 2.65.

As for HIRLRPRQVLCEKCKSTLSPPEAS, the protein stability index stood at 2.8.

With KIRLRPRQVLCEKCKSTLSPPEAS, the protein stability index was found to be 2.98.

VIRLRPRQVLCEKCKSTLSPPEAS: the protein stability index is 2.78.

In the case of MIRLRPRQVLCEKCKSTLSPPEAS, the protein stability index stood at 2.23.

Regarding GIRLRPRQVLCEKCKSTLSPPEAS, the protein stability index turned out to be 3.09.

Regarding EIRLRPRQVLCEKCKSTLSPPEAS, the protein stability index is 3.55.

On to LIRLRPRQVLCEKCKSTLSPPEAS, for which the protein stability index was 2.28.

Take FIRLRPRQVLCEKCKSTLSPPEAS: the protein stability index was found to be 1.72.

As for TDRLRPRQVLCEKCKSTLSPPEAS, the protein stability index stood at 3.68.

Consider TRRLRPRQVLCEKCKSTLSPPEAS, for which the protein stability index worked out at 3.11.

As to TERLRPRQVLCEKCKSTLSPPEAS, the protein stability index was 3.67.

With THRLRPRQVLCEKCKSTLSPPEAS, the protein stability index was determined as 3.54.

As to TSRLRPRQVLCEKCKSTLSPPEAS, the protein stability index came to 3.64.

Consider TCRLRPRQVLCEKCKSTLSPPEAS, for which the protein stability index turned out to be 3.7.

Take TNRLRPRQVLCEKCKSTLSPPEAS: the protein stability index amounted to 4.05.

TYRLRPRQVLCEKCKSTLSPPEAS: the protein stability index came out at 3.04.

Turning to TVRLRPRQVLCEKCKSTLSPPEAS, the protein stability index is 3.24.

With TQRLRPRQVLCEKCKSTLSPPEAS, the protein stability index is 3.63.

As for TWRLRPRQVLCEKCKSTLSPPEAS, the protein stability index is 3.

Consider TFRLRPRQVLCEKCKSTLSPPEAS, for which the protein stability index worked out at 3.54.

As for TMRLRPRQVLCEKCKSTLSPPEAS, the protein stability index turned out to be 2.76.

For the variant TARLRPRQVLCEKCKSTLSPPEAS, the protein stability index was 3.61.

As for TGRLRPRQVLCEKCKSTLSPPEAS, the protein stability index amounted to 3.27.

As for TLRLRPRQVLCEKCKSTLSPPEAS, the protein stability index came to 3.35.

In the case of TPRLRPRQVLCEKCKSTLSPPEAS, the protein stability index stood at 4.11.

For the variant TKRLRPRQVLCEKCKSTLSPPEAS, the protein stability index was found to be 2.98.

Take TTRLRPRQVLCEKCKSTLSPPEAS: the protein stability index was 3.85.

With TIRLRPRAVLCEKCKSTLSPPEAS, the protein stability index came out at 2.85.

In the case of TIRLRPRVVLCEKCKSTLSPPEAS, the protein stability index stood at 2.35.

For the variant TIRLRPRPVLCEKCKSTLSPPEAS, the protein stability index was 3.06.

Consider TIRLRPRTVLCEKCKSTLSPPEAS, for which the protein stability index came out at 2.76.

With TIRLRPRSVLCEKCKSTLSPPEAS, the protein stability index worked out at 3.05.

Take TIRLRPRWVLCEKCKSTLSPPEAS: the protein stability index stood at 2.19.

In the case of TIRLRPRRVLCEKCKSTLSPPEAS, the protein stability index turned out to be 2.95.

TIRLRPRLVLCEKCKSTLSPPEAS: the protein stability index is 2.58.

On to TIRLRPRGVLCEKCKSTLSPPEAS, for which the protein stability index was 2.96.

Consider TIRLRPRDVLCEKCKSTLSPPEAS, for which the protein stability index was found to be 3.49.

Take TIRLRPRYVLCEKCKSTLSPPEAS: the protein stability index came out at 2.74.

In the case of TIRLRPREVLCEKCKSTLSPPEAS, the protein stability index stood at 3.33.

Turning to TIRLRPRMVLCEKCKSTLSPPEAS, the protein stability index came out at 2.92.

Consider TIRLRPRIVLCEKCKSTLSPPEAS, for which the protein stability index was determined as 2.64.

Take TIRLRPRNVLCEKCKSTLSPPEAS: the protein stability index was found to be 2.97.

For the variant TIRLRPRHVLCEKCKSTLSPPEAS, the protein stability index worked out at 2.77.

In the case of TIRLRPRCVLCEKCKSTLSPPEAS, the protein stability index was 2.09.

As for TIRLRPRFVLCEKCKSTLSPPEAS, the protein stability index was determined as 2.24.

TIRLRPRKVLCEKCKSTLSPPEAS: the protein stability index turned out to be 2.99.

TIRLRWRQVLCEKCKSTLSPPEAS: the protein stability index was determined as 2.05.

On to TIRLRNRQVLCEKCKSTLSPPEAS, for which the protein stability index was found to be 2.53.

Take TIRLRRRQVLCEKCKSTLSPPEAS: the protein stability index was 2.52.

On to TIRLRSRQVLCEKCKSTLSPPEAS, for which the protein stability index stood at 3.1.

TIRLRQRQVLCEKCKSTLSPPEAS: the protein stability index worked out at 3.02.

Take TIRLRERQVLCEKCKSTLSPPEAS: the protein stability index was 3.8.

Consider TIRLRYRQVLCEKCKSTLSPPEAS, for which the protein stability index came out at 2.04.

For the variant TIRLRMRQVLCEKCKSTLSPPEAS, the protein stability index amounted to 2.37.

With TIRLRFRQVLCEKCKSTLSPPEAS, the protein stability index turned out to be 2.05.

In the case of TIRLRDRQVLCEKCKSTLSPPEAS, the protein stability index was 3.61.

For TIRLRLRQVLCEKCKSTLSPPEAS, the protein stability index came to 2.04.

With TIRLRARQVLCEKCKSTLSPPEAS, the protein stability index came out at 2.76.

Regarding TIRLRCRQVLCEKCKSTLSPPEAS, the protein stability index is 2.46.

As for TIRLRTRQVLCEKCKSTLSPPEAS, the protein stability index was found to be 3.09.

As for TIRLRIRQVLCEKCKSTLSPPEAS, the protein stability index amounted to 1.62.

With TIRLRKRQVLCEKCKSTLSPPEAS, the protein stability index came out at 2.82.

As for TIRLRVRQVLCEKCKSTLSPPEAS, the protein stability index amounted to 2.19.

For the variant TIRLRGRQVLCEKCKSTLSPPEAS, the protein stability index came to 3.25.

Turning to TIRLRHRQVLCEKCKSTLSPPEAS, the protein stability index was 2.77.
